Measurements taken from US20220275095A1 (SURROZEN OPERATING, published 2022).
Substitutions are numbered along the chain they refer to. Blank lines part the entries; values can stand above or below the binder they belong to.

Columns and labels:
human Fzd5 hinge region = molecular target: T1, human Fzd5 hinge region (human); test: SPR
T1 construct: also called hFzd5L
T1 peptide: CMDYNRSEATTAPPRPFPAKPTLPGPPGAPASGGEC
Experimental: (§1) Certain VL and VH clones from Table 1 were PCR amplified from the phage clone and sub-cloned into pcDNA3.1 based mammalian expression vectors (Invitrogen/ThermoFisher) of human kappa or lambda light chain and human IgG1 heavy chain, respectively. Candidate IgGs were purified using Protein A affinity resin. The candidate library was captured on an anti-FC lawn. The capture lawn was prepared by direct amine coupling goat anti-human IgG Fc (Southern Biotech #2048-01) at 8000 RU on a HC200M Carterra sensor chip (Carterra 4297). Capture levels were at least 600 RU for each candidate IgG. Binding to all target peptides was measured at 25° by injecting a concentration series of each peptide in 1×PBST+0.5 mg/mL BSA (TEKnova P1192, VWR V0332). All peptides were injected at 4.12 nM, 12.3 nM, 37 nM, 111 nM, 333 nM, and 1000 nM. Two blank injections were run between each peptide concentration series. Each injection started with a one minute baseline determination, followed by a five minute association phase where peptides were injected, and finished with a 10 minute dissociation phase. Binding data was analyzed using NextGenKIT (Carterra). Blank injections and reference locations were subtracted from all runs prior to fitting a 1:1 binding model to the data. […] Interactions with an Rₘₐₓ less than 15 RU or weaker than 5 μM were considered non-binders.

mouse Fzd6 hinge region = molecular target: T2, mouse Fzd6 hinge region (mouse, UniProt Q61089 129-161, limits assumed); test: SPR
T2 construct: domain: hinge region; also called mFzd6L
T2 peptide (looked up): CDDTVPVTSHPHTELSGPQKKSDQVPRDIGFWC
Experimental: as §1

human Fzd4 hinge region = molecular target: T3, human Fzd4 hinge region (human); test: SPR
T3 construct: also called hFzd4L
T3 peptide: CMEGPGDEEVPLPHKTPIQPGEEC
Experimental: as §1

human Fzd9 hinge region = molecular target: T4, human Fzd9 hinge region (human); test: SPR
T4 construct: also called hFzd9L; hFzd9
T4 peptide: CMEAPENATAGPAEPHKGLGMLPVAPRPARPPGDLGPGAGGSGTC
Experimental: as §1

mouse Fzd8 hinge region = molecular target: T5, mouse Fzd8 hinge region (mouse, UniProt Q61091 148-225, limits assumed); test: SPR
T5 construct: domain: hinge region; also called mFzd8L; mFzd8
T5 sequence (peptide, looked up): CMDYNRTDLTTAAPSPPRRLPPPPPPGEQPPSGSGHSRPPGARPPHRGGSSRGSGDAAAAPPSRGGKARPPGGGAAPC
Experimental: as §1

mouse Fzd5 hinge region = molecular target: T6, mouse Fzd5 hinge region (mouse, UniProt Q9EQD0 147-182, limits assumed); test: SPR
T6 construct: domain: hinge region; also called mFzd5L
T6 peptide (looked up): T1 peptide with P13S, R15K, P16S, A31S
Experimental: as §1

mouse Fzd2 hinge region = molecular target: T7, mouse Fzd2 hinge region (mouse, UniProt Q9JIP6 155-206, limits assumed); test: SPR
T7 construct: domain: hinge region; also called mFzd2L
Experimental: as §1

mouse Fzd3 hinge region = molecular target: T8, mouse Fzd3 hinge region (mouse, UniProt Q61086 133-165, limits assumed); test: SPR
T8 construct: domain: hinge region; also called mFzd3L
T8 peptide (looked up): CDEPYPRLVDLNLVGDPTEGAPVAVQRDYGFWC
Experimental: as §1

mouse Fzd10 hinge region = molecular target: T9, mouse Fzd10 hinge region (mouse, UniProt Q8BKG4 148-193, limits assumed); test: SPR
T9 construct: domain: hinge region; also called mFzd10L
T9 peptide (looked up): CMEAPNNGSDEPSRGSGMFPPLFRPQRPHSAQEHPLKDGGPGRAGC
Experimental: as §1

human Fzd2 hinge region = molecular target: T10, human Fzd2 hinge region (human); test: SPR
T10 construct: also called hFzd2L
T10 peptide: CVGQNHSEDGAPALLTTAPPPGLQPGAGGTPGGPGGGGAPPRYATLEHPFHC
Experimental: as §1

human Fzd6 hinge region = molecular target: T11, human Fzd6 hinge region (human); test: SPR
T11 construct: also called hFzd6L
T11 peptide: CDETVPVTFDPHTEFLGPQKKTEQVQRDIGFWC
Experimental: as §1

human Fzd10 hinge region = molecular target: T12, human Fzd10 hinge region (human); test: SPR
T12 construct: also called hFzd10L
T12 peptide: T9 peptide (looked up) with S13T, M18L, A44G
Experimental: as §1

human Fzd3 hinge region = molecular target: T13, human Fzd3 hinge region (human); test: SPR
T13 construct: also called hFzd3L
T13 peptide: T8 peptide (looked up) with V14A, D16E
Experimental: as §1

mouse Fzd9 hinge region = molecular target: T14, mouse Fzd9 hinge region (mouse, UniProt Q9R216 153-197, limits assumed); test: SPR
T14 construct: domain: hinge region; also called mFzd9
T14 peptide (looked up): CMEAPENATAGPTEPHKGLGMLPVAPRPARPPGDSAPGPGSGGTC
Experimental: as §1

mouse Fzd7 hinge region = molecular target: T15, mouse Fzd7 hinge region (mouse, UniProt Q61090 160-208, limits assumed); test: SPR
T15 construct: domain: hinge region; also called mFzd7L
T15 peptide (looked up): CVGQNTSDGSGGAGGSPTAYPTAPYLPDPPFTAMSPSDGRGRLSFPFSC
Experimental: as §1

mouse Fzd4 hinge region = molecular target: T16, mouse Fzd4 hinge region (mouse, UniProt Q61088 158-181, limits assumed); test: SPR
T16 construct: domain: hinge region; also called mFzd4L
T16 peptide (looked up): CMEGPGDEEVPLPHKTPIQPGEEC
Experimental: as §1

human Fzd1 hinge region [1] = molecular target: T17, human Fzd1 hinge region (human); test: SPR; *** = 100 nM > KD > 10 nM
T17 construct: also called hFzd1L
T17 peptide: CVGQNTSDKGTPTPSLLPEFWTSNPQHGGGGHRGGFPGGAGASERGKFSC
Experimental: as §1

mouse Fzd1 hinge region [2] = molecular target: T18, mouse Fzd1 hinge region (mouse, UniProt O70421 222-271, limits assumed); test: SPR; *** = 100 nM > KD > 10 nM
T18 construct: domain: hinge region; also called mFzd1L
T18 peptide (looked up): T17 peptide with H32Y, F36Y, A42T, S43V
Experimental: as §1

Fzd1 CRD = Fzd1 CRD (UniProt Q9UP38 105-232); test: BLI (Octet Red 96), biotinylated Fzd1 CRD on streptavidin biosensor
Experimental: Binding kinetics of monospecific Fzd binders to either (CRD) or the extracellular hinge region (hinge) was determined by bio-layer interferometry (BLI) using Octet Red 96 (PALL ForteBio, Fremont, Calif.) instruments at 30° C., 1000 rpm with streptavidin (SA) biosensors. N-terminal biotinylated Fzd1 or Fzd2 CRD and Fzd1 or Fzd 2 hinge proteins were captured on the SA biosensor. Following capture of biotinylated-Fzd1 or Fzd2, the SA biosensor with captured […] was dipped into wells containing the relevant antibodies at 7 different concentrations in running buffer plus a well with only running buffer as a reference channel. KD was determined by global fitting. As shown in FIGS. 4A-4H these antibody fusion proteins only bound to either Fzd1 or Fzd2 protein with the hinge region, and not to the CRD domains alone.

human Fzd1 hinge region [3] = molecular target: T17, human Fzd1 hinge region; test: SPR; **** = 10 nM > KD
Experimental: as §1

mouse Fzd1 hinge region [4] = molecular target: T18, mouse Fzd1 hinge region; test: SPR; **** = 10 nM > KD
Experimental: as §1

hFzd2L = molecular target: T19, hFzd2L (human, UniProt Q14332 150-201); test: phage ELISA, antigen on plate
T19 construct: ELISA antigen; also called human Fzd2 hinge region; Frizzled 2
Experimental: Detection of bound phage was determined calorimetrically by turnover of TMB substrate (Thermo Fisher Scientific, Waltham, Mass.) at […] by anti-M13-HRP antibody (GE Healthcare, Pittsburgh, Pa.). Clones were identified as binding to a Fzd receptor when the fold OD 450 nm over background was greater than a threshold level.

human Fzd1 hinge region [5] = molecular target: T17, human Fzd1 hinge region; test: SPR; ** = 1 uM > KD > 100 nM
Experimental: as §1

mouse Fzd1 hinge region [6] = molecular target: T18, mouse Fzd1 hinge region; test: SPR; ** = 1 uM > KD > 100 nM
Experimental: as §1

- binding result (human Fzd5 hinge region): no binding (tested: 5 uM)
- binding result (mouse Fzd6 hinge region): no binding (tested: 5 uM)
- binding result (human Fzd4 hinge region): no binding (tested: 5 uM)
- binding result (human Fzd9 hinge region): no binding (tested: 5 uM)
- binding result (mouse Fzd8 hinge region): no binding (tested: 5 uM)
- binding result (mouse Fzd5 hinge region): no binding (tested: 5 uM)
- binding result (mouse Fzd2 hinge region): no binding (tested: 5 uM)
- binding result (mouse Fzd3 hinge region): no binding (tested: 5 uM)
- binding result (mouse Fzd10 hinge region): no binding (tested: 5 uM)
- binding result (human Fzd2 hinge region): no binding (tested: 5 uM)
- binding result (human Fzd6 hinge region): no binding (tested: 5 uM)
- binding result (human Fzd10 hinge region): no binding (tested: 5 uM)
- binding result (human Fzd3 hinge region): no binding (tested: 5 uM)
- binding result (mouse Fzd9 hinge region): no binding (tested: 5 uM)
- binding result (mouse Fzd7 hinge region): no binding (tested: 5 uM)
- binding result (mouse Fzd4 hinge region): no binding (tested: 5 uM)
- KD (human Fzd1 hinge region [1]): 10 to 100 nM
- KD (mouse Fzd1 hinge region [2]): 10 to 100 nM
B1: 033S-E02 (antibody, V domains shown)
VH: QVQLVQSGAEVKKPGSSVKVSCKASGGTFTSYAISWVRQAPGQGLEWMGMINPSGGRTTYAQKFQGRVTITADESTSTAYMKLSSLRSEDTAVYYCAIRTIFGVVIDYWGQGTLVTVSS
VL: not shown
notes: human IgG1, human kappa or lambda light chain; also called 33SE2

- binding result (Fzd1 CRD): no binding
B2: 033S-E02 Fab (Fab, V domains shown)
VH: B1 VH
VL: not shown
notes: also called 33SE2

- binding result (human Fzd5 hinge region): no binding (tested: 5 uM)
- binding result (mouse Fzd6 hinge region): no binding (tested: 5 uM)
- binding result (human Fzd4 hinge region): no binding (tested: 5 uM)
- binding result (human Fzd9 hinge region): no binding (tested: 5 uM)
- binding result (mouse Fzd8 hinge region): no binding (tested: 5 uM)
- binding result (mouse Fzd5 hinge region): no binding (tested: 5 uM)
- binding result (mouse Fzd2 hinge region): no binding (tested: 5 uM)
- binding result (mouse Fzd3 hinge region): no binding (tested: 5 uM)
- binding result (mouse Fzd10 hinge region): no binding (tested: 5 uM)
- binding result (human Fzd2 hinge region): no binding (tested: 5 uM)
- binding result (human Fzd6 hinge region): no binding (tested: 5 uM)
- binding result (human Fzd10 hinge region): no binding (tested: 5 uM)
- binding result (human Fzd3 hinge region): no binding (tested: 5 uM)
- binding result (mouse Fzd9 hinge region): no binding (tested: 5 uM)
- binding result (mouse Fzd7 hinge region): no binding (tested: 5 uM)
- binding result (mouse Fzd4 hinge region): no binding (tested: 5 uM)
- KD (human Fzd1 hinge region [3]): < 10 nM
- KD (mouse Fzd1 hinge region [4]): < 10 nM
B3: 033S-B03 (antibody, V domains shown)
VH: QVQLVQSGAEVKKPGSSVKVSCKASGYTFTGQYMHWVRQAPGQGLEWMGGIIPIFGTAHYPQKFQGRVTITADESTSTAYMELSSLRSEDTAVYYCARRSVAAGTPFTDYWGQGTLVTVSS
VL: not shown
notes: human IgG1, human kappa or lambda light chain; also called 33SB3

- binding result (Fzd1 CRD): no binding
B4: 033S-B03 Fab (Fab, V domains shown)
VH: B3 VH
VL: not shown
notes: also called 33SB3

- binding result (hFzd2L): binds
B5: 031S-B02 (antibody, V domains shown)
VH: EVQLLESGGGLVQPGGSLRLSCAASGFTFSSYWMSWVRQAPGKGLEWVSAIGGSGANAYYADSVKGRFTISRDNSKNTLYLQMNSLRAEDTAVYYCVRDTNWAFDLWGQGTMVTVSS
VL: EIVMTQSPATLSVSPGERATLSCRASQSVSGSYLAWYQQKPGQAPRLLIYGASTRATGIPARFSGSGSGTEFTLTISSLQSEDFAVYYCQQYGSSPLTFGQGTKVEIK
notes: also called 31SB2

- binding result (human Fzd5 hinge region): no binding (tested: 5 uM)
- binding result (mouse Fzd6 hinge region): no binding (tested: 5 uM)
- binding result (human Fzd4 hinge region): no binding (tested: 5 uM)
- binding result (human Fzd9 hinge region): no binding (tested: 5 uM)
- binding result (mouse Fzd8 hinge region): no binding (tested: 5 uM)
- binding result (mouse Fzd5 hinge region): no binding (tested: 5 uM)
- binding result (mouse Fzd2 hinge region): no binding (tested: 5 uM)
- binding result (mouse Fzd3 hinge region): no binding (tested: 5 uM)
- binding result (mouse Fzd10 hinge region): no binding (tested: 5 uM)
- binding result (human Fzd2 hinge region): no binding (tested: 5 uM)
- binding result (human Fzd6 hinge region): no binding (tested: 5 uM)
- binding result (human Fzd10 hinge region): no binding (tested: 5 uM)
- binding result (human Fzd3 hinge region): no binding (tested: 5 uM)
- binding result (mouse Fzd9 hinge region): no binding (tested: 5 uM)
- binding result (mouse Fzd7 hinge region): no binding (tested: 5 uM)
- binding result (mouse Fzd4 hinge region): no binding (tested: 5 uM)
- KD (human Fzd1 hinge region [5]): 100 to 1000 nM
- KD (mouse Fzd1 hinge region [6]): 100 to 1000 nM
B6: 033S-D02 (antibody, V domains shown)
VH: QVQLVQSGAEVKKPGSSVKVSCKASGITFTSSAVHWVRQAPGQGLEWLGIINPSGGSTSYAQKFQGRVTITADESTSTAYMELSSLRSEDTAVYYCARRMVYAPYKDVWGKGTMVTVSS
VL: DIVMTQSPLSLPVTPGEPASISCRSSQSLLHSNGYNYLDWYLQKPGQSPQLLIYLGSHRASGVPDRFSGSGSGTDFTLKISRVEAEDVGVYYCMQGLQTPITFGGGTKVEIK
notes: human IgG1, human kappa or lambda light chain; also called 33SD2

- binding result (Fzd1 CRD): no binding
B7: 033S-D02 Fab (Fab, V domains shown)
VH: B6 VH
VL: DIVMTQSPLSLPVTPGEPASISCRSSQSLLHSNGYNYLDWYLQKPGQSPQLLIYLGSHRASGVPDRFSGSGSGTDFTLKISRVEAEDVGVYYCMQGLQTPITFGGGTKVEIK
notes: also called 33SD2
